The text below walks through data of PMC3326523, “Histone Recognition and Large-Scale Structural Analysis of the Human Bromodomain Family” (Cell, 2012).

For experiment [1], the target named is CECR2 bromodomain (human) (UniProt Q9BXF3). The experiment in a line: ITC; peptide (mM stock) titrated into bromodomain (about 50 μM), by the concentrations in the tables; 10 or 15°C, 50 mM HEPES pH 7.5, 150 mM NaCl; single binding site model. Background: Isothermal titration calorimetry measures the heat released or taken up as one component is titrated into another.
Chain of CECR2 bromodomain (human) (Q9BXF3 424-538): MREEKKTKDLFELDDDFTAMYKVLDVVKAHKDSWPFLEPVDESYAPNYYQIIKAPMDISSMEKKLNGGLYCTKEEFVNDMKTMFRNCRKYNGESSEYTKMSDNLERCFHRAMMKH

Experiment [2] deals with TAF1(1/2), tandem bromodomains of TAF1 (human) (UniProt P21675). The description is as above.
Chain of TAF1(1/2), tandem bromodomains of TAF1 (human) (P21675 whole entry): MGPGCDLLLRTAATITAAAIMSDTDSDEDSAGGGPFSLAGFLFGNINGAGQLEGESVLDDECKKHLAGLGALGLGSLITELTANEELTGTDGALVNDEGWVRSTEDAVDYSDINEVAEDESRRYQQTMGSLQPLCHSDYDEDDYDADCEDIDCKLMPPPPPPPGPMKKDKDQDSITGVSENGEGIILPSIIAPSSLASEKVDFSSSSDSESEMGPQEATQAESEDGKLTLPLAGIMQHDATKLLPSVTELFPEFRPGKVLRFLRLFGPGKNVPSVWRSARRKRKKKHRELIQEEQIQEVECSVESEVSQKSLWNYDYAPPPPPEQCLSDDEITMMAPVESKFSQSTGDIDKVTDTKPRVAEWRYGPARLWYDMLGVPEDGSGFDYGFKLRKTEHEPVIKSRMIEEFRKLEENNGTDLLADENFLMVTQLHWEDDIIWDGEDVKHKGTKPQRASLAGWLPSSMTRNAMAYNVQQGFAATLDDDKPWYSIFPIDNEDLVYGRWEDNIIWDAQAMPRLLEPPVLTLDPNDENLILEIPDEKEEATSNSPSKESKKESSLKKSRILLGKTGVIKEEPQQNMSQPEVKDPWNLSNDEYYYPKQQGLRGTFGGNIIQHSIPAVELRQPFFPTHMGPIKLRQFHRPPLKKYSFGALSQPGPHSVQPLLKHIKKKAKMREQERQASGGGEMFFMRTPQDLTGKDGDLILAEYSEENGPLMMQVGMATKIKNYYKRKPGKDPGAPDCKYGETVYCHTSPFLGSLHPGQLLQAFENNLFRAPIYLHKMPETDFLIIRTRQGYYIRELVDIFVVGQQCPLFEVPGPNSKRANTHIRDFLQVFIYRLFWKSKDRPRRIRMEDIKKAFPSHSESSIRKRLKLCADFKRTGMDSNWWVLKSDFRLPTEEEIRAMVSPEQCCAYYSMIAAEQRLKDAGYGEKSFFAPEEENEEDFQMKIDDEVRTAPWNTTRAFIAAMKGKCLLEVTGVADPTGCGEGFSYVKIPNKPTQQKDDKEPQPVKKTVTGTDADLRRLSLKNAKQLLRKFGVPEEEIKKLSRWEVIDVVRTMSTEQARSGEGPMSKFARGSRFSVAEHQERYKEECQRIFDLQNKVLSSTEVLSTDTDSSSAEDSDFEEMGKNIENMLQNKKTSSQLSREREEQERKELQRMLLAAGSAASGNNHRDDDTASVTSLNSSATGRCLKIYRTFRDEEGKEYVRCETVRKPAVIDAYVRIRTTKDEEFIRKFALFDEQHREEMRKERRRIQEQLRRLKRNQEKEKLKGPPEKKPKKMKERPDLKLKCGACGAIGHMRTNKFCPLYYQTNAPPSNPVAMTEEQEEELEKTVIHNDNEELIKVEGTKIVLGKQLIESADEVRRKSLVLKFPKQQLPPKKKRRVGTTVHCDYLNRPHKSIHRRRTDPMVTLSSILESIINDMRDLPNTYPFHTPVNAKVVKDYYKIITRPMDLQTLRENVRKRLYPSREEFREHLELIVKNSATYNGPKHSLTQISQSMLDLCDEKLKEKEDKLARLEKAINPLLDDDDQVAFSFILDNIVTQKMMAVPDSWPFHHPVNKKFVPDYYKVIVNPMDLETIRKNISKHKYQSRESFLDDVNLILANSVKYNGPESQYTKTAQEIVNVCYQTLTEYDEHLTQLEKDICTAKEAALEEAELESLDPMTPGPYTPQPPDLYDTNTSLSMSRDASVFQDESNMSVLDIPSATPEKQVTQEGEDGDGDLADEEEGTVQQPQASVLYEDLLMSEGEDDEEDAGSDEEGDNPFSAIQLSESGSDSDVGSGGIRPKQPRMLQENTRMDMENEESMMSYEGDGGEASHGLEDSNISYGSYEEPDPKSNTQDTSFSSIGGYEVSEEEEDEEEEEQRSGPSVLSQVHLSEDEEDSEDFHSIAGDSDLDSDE
Experiment [3] has as its target BAZ2B bromodomain (human) (UniProt Q9UIF8). The description is as above.
Experiment [4] deals with TAF1(2), second bromodomain of TAF1 (human) (UniProt P21675). The experiment is described as above.
Chain of TAF1(2), second bromodomain of TAF1 (human) (P21675 whole entry): as above
Experiment [5] addresses PCAF bromodomain (human) (UniProt Q92831). The description is as above.
Experiment [6] deals with SMARCA2 bromodomain (human) (UniProt P51531). The description is as above.
Experiment [7] deals with CREBBP bromodomain (human) (UniProt Q92793). The description is as above.
Chain of CREBBP bromodomain (human) (Q92793 1081-1197): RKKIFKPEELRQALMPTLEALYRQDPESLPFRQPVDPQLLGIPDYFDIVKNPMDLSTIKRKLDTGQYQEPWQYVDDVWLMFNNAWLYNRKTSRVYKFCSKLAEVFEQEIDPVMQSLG
For experiment [8], the target named is BRD3(1), first bromodomain of BRD3 (human) (UniProt Q15059). The experiment is described as above.
Chain of BRD3(1), first bromodomain of BRD3 (human) (Q15059 whole entry): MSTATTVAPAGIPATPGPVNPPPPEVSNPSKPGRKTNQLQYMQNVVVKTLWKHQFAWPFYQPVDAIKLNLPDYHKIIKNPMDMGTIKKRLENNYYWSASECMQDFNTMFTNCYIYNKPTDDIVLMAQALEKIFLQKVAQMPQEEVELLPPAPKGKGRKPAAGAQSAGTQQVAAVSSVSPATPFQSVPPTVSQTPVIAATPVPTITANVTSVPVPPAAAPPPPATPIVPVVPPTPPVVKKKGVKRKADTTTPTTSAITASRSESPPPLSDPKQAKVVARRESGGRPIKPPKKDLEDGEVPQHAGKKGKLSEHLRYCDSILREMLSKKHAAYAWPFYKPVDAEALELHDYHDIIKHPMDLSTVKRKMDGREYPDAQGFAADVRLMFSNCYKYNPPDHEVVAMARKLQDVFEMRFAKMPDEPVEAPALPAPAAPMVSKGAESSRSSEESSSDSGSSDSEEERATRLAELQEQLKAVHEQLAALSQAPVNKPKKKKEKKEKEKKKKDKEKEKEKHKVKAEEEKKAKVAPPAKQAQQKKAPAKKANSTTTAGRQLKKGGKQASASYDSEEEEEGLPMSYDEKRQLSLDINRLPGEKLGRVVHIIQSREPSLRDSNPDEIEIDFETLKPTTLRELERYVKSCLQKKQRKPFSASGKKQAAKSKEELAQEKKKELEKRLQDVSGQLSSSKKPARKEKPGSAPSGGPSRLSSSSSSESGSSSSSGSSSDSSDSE
Experiment [9] has as its target KIAA1240 bromodomain (human) (UniProt Q9ULI0). Described as above.
Experiment [10] has as its target BRD3(1), first bromodomain of BRD3 (human) (UniProt Q15059). The experiment in a line: ITC; as a1; rows with N of about 0.5 or 0.25: two or more bromodomains on one peptide, apparent binding constants, events not deconvoluted.
In experiment [11] the target is BRD3(2), second bromodomain of BRD3 (human) (UniProt Q15059). Described as above.
For experiment [12], the target named is H3K14ac peptide (ITC) (human). The experiment in a line: ITC; VP-ITC or ITC200, 10 or 15°C, 50 mM HEPES pH 7.5, 150 mM NaCl; in most cases single binding site model.
Experiment [13] has as its target H3pS10K14acK18ac peptide (ITC) (human). The description is as above.
Experiment [14] addresses WDR9 second bromodomain, WDR9(2) (UniProt Q9NSI6). The experiment in a line: SPOT peptide array, His6-BRD overlay. As to conditions: reference: H3K4acK9ac peptide; sites T3.
The target of experiment [15] is EP300 bromodomain (UniProt Q09472). The experiment in a line: SPOT peptide array, His6-BRD overlay. As to conditions: reference: H3K4acK9ac peptide; sites T3.

Chain of BAZ2B bromodomain (human) (Q9UIF8 whole entry): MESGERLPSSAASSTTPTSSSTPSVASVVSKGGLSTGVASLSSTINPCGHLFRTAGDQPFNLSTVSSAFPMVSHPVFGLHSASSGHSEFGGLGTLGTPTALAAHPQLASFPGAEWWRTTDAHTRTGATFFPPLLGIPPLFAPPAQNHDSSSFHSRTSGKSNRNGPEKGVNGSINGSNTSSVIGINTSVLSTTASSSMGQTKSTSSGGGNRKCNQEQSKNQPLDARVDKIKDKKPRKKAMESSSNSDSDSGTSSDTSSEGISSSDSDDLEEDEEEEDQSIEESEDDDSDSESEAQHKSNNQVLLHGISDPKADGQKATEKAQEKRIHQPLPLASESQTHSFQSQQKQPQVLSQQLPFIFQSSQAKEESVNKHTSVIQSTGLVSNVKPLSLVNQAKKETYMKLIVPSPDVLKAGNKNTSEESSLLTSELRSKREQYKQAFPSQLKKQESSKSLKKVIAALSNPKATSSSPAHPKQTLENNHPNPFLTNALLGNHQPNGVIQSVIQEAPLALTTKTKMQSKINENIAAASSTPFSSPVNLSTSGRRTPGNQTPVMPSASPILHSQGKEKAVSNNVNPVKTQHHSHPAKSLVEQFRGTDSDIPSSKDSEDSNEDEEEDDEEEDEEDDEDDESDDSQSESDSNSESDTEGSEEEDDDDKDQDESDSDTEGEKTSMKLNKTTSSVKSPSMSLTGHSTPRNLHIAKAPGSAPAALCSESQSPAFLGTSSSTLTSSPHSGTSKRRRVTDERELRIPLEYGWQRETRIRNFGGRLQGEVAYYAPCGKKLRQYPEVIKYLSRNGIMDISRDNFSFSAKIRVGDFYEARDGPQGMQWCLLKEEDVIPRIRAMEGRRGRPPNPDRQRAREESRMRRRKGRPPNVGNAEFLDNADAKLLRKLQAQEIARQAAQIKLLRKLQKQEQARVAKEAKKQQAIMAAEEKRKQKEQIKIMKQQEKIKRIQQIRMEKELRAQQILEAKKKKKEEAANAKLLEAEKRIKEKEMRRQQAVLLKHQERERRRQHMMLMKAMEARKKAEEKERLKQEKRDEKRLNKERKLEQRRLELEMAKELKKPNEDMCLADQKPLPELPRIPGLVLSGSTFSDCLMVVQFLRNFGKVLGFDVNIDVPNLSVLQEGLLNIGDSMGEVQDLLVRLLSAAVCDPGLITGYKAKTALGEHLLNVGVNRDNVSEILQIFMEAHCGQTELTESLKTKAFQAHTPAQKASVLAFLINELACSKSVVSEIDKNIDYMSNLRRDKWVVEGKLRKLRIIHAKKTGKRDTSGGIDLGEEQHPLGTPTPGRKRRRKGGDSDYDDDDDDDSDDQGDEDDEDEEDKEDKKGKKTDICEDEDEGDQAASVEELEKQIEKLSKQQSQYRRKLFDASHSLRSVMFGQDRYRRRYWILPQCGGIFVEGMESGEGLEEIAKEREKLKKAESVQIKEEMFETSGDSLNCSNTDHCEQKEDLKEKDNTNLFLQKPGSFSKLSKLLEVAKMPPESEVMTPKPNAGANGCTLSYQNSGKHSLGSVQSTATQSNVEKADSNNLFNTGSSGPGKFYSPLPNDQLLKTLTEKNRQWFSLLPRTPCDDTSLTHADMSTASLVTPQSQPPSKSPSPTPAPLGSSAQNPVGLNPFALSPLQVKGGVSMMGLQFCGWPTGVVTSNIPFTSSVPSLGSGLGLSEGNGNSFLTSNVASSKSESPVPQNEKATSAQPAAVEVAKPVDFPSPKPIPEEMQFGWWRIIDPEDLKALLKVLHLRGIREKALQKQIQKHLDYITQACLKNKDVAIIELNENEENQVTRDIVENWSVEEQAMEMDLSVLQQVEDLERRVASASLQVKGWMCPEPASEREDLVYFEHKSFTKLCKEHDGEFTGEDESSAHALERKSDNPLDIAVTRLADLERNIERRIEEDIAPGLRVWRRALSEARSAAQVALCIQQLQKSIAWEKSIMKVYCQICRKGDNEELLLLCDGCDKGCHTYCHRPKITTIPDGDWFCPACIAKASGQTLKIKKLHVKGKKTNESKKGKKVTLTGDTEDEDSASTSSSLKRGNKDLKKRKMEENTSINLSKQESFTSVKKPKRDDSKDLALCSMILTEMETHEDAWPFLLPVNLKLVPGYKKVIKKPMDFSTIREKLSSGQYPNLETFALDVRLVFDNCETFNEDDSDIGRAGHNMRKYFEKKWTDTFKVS
Chain of bromodomain of CREBBP, tag removed (ITC) (Q92793 1081-1197): as the sequence (Q92793 1081-1197) above

The term stoichiometry N denotes the number of molecules, sites or subunits per partner or assembly. As for H3K9 peptide KQTARKacSTGGKY, in experiment [1], the stoichiometry N turned out to be 1.
Take H3K9/K14 peptide KQTARKacSTGGKacAPRKQY: in experiment [2], the Kd turned out to be 339 µM and the stoichiometry N was 1.02.
As for “H3K9/S10/K14 peptide KQTARKacpSTGGKacAPRKQY”, in [2], the Kd is 150 µM and the stoichiometry N stood at 1.05.
For H3K14 peptide KSTGGKacAPRKQY, the Kd in [3] was 7.6 µM; in [4], 306 µM; in experiment [2], 179 µM. Besides, the stoichiometry N in experiment [3] was 1; in experiment [1], 1; in experiment [2], 1.01; in [5], 1.01; in experiment [6] it was 1.05.
H3S10K14K18 peptide KpSTGGKacAPRKacQY: in experiment [7], the stoichiometry N turned out to be 1.
In experiment [8], H4K8 peptide RGKGGKacGLGKGY showed a Kd of 211 µM and a stoichiometry N of 1. This substance also gave a stoichiometry N in [9] of 1.
For H4K12/16/20 peptide GKacGGAKacRHRKacV, in experiment [10], the Kd was found to be 31.4 µM and the stoichiometry N worked out at 0.51. In addition, the stoichiometry N in experiment [11] turned out to be 0.5.
For “bromodomain of CREBBP, tag removed (ITC) (from UniProt Q92793 1081-1197) (domain or fragment)”, the Kd amounted to 733 µM in experiment [12] and 131 µM in experiment [13].
On to “histone H3 N-terminal tail (from UniProt P68431) H3 pT3K4acK9ac peptide”, for which the “binding against the reference” value in [14] and in [15] was “gained” throughout.
